Measured values as given in patent US5700659.

What was measured:
[1] = target: scrambled ribonuclease A from bovine pancreas (bovine) (UniProt P61823)
[2] = target: scrambled egg lysozyme (Gallus gallus (Chicken)) (UniProt P00698)

Chain of UniProt P61823 (P61823 27-150 limits assumed): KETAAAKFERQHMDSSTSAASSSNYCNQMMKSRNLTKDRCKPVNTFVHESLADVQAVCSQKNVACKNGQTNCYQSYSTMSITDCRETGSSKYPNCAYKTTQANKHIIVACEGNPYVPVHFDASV

Row | Refolding Ratio of Sc-RNase (%) [1] [%] | reactivation of Sc-lysozyme (lysozyme activity on ethylene glycol chitin, absorbance at 420 nm) [2] [%] | Binder
1 | 80 | 12 | polypeptide possessing protein disulfide isomerase (PDI) activity from Humicola insolens KASI (FERM BP-4239), purified from fungal cells (Example 2) (enzyme) SDVVQLKKDTFDDFIKTNDLVLAEFFAPWCGHCKALAPEYEEAATTLKEKNIKLAKVDCTEETDLCQQHGVEGYPTLKVFRGLDNVSPYKGQRKAAAITSYMIKQSLPAVSEVTKDNLEEFKKADKAVLVAYVDASDKASSEVFTQVAEKLRDNYPFGSSSDAALAEAEGVKAPAIVLYKDFDEGKAVFSEKFEVEAIEKFAKTGATPLIGEIGPETYSDYMSAGIPLAYIFAETAEERKELSDKLKPIAEAQRGVINFGTIDAKAFGAHAGNLNLKTDKFPAFAIQEVAKNQKFPFDQEKEITFEAIKAFVDDFVAGKIEPSIKSEPIPEKQEGPVTVVVAKNYNEIVLDDTKDVLIEFYAPWCGHCKALAPKYEELGALYAKSEFKDRVVIAKVDATANDVPDEIQGFPTIKLYPAGAKGQPVTYSGSRTVEDLIKFIAENGKYKAAISEDAEETSSATETTTETATKSEEAAKETATEHDEL
2 | 82 | – | recombinant polypeptide possessing PDI activity from E. coli JM105/pTrc99APDI (Example 8) (enzyme) SDVVQLKKDTFDDFIKTNDLVLAEFFAPWCGHCKALAPEYEEAATTLKEKNIKLAKVDCTEETDLCQQHGVEGYPTLKVFRGLDNVSPYKGQRKAAAITSYMIKQSLPAVSEVTKDNLEEFKKADKAVLVAYVDASDKASSEVFTQVAEKLRDNYPFGSSSDAALAEAEGVKAPAIVLYKDFDEGKAVFSEKFEVEAIEKFAKTGATPLIGEIGPETYSDYMSAGIPLAYIFAETAEERKELSDKLKPIAEAQRGVINFGTIDAKAFGAHAGNLNLKTDKFPAFAIQEVAKNQKFPFDQEKEITFEAIKAFVDDFVAGKIEPSIKSEPIPEKQEGPVTVVVAKNYNEIVLDDTKDVLIEFYAPWCGHCKALAPKYEELGALYAKSEFKDRVVIAKVDATANDVPDEIQGFPTIKLYPAGAKGQPVTYSGSRTVEDLIKFIAENGKYKAAISEDAEETSSATETTTETATKSEEAAKETATEHDEL
